Measured values reported in publication PMC11187071, “The binding mechanism of an anti-multiple myeloma antibody to the human GPRC5D homodimer” (Nature Communications, 2024).
Positions count from the first letter of the chain named. Values belong to the binder of their own block, whether it stands above or below them.

Key:
[1] = target: T1, WT GPRC5D expressed on HEK293T cells (Homo sapiens, UniProt Q9NZD1); test: flow cytometry on cells; HEK293T cells transiently transfected with WT or mutated GPRC5D, incubated with purified IgG150_18 at different concentrations for 60 min, detected with goat anti-human IgG (Fc specific)-FITC at 4 °C; % of total, normalized to expression level; details: one partner purified
T1 construct: human GPRC5D, UniProt Q9NZD1; also called GPRC5D-WT; source: HEK293T, transiently transfected, on cells

[2] = target: the molecule itself; test: cryo-EM structure; GPRC5D and scFv150_18 co-expressed in Hi5 insect cells, complex purified by TALON IMAC and Superdex 200 in LMNG/CHS, 20 mM HEPES pH 7.4, 100 mM NaCl; C2 symmetry, 3.34 Å

binding result [1]: binds
B1: IgG150-18 with a single mutation at Y228 (HCDR2) (antibody, V domains shown)
VH: QVQLVESGGGLVHPGGSLRLSCAASGFTFRSHSMNWVRQAPGKGLEWVSSISSDSTYTAYADSVKGRFTISRDNAKNSLYLQMNSLRAEDTAVYYCARSGGQWKYYDYWGQGTLVTVSS
VL: SSELTQDPAVSVALGQTVRITCQGDSLRSYYASWYQQKPGQAPVLVIYGKNNRPSGIPDRFSGSSSGNTASLTITGAQAEDEADYYCNSRDSSGNPPVVFGGGTKLTVL
notes: as the heavy chain variable domain of m3 (from scFv m2, PDB 8YZK) with a single mutation at Y228 (HCDR2; number as printed for the scFv); human IgG heavy chain constant region; as the light chain of m3; Residue number counts as in the scFv structure, not on the IgG heavy chain; also called Y228 mutant antibody; source: HEK-293F, transfected, purified (protein A, Superdex 200)

EC50 [1]: ~4.6 nM
B2: IgG150-18 (scFv150-18 cloned into human IgG format) (antibody, V domains shown)
VH: B1 VH with A59Y
VL: B1 VL
notes: heavy chain variable domain as in the scFv m2 (PDB 8YZK); human IgG heavy chain constant region; light chain variable domain as in the scFv m2 (PDB 8YZK); human light chain constant region; also called antibody150_18; scFv150_18 in its IgG format; source: HEK-293F, transfected, purified (protein A, Superdex 200)

B3: human GPRC5D (residues 1-298) with N-terminal BRIL fusion, cryo-EM construct (receptor, UniProt Q9NZD1 1-298, looked up)
chain: MYKDCIESTGDYFLLCDAEGPWGIILESLAILGIVVTILLLLAFLFLMRKIQDCSQWNVLPTQLLFLLSVLGLFGLAFAFIIELNQQTAPVRYFLFGVLFALCFSCLLAHASNLVKLVRGCVSFSWTTILCIAIGCSLLQIIIATEYVTLIMTRGMMFVNMTPCQLNVDFVVLLVYVLFLMALTFFVSKATFCGPCENWKQHGRLIFITVLFSIIIWVVWISMLLRGNPQFQRQPQWDDPVVCIALVTNAWVFLLLYIVPELCILYRSCRQECPLQGNACPVTAYQHSFQVENQELSR
notes: human GPRC5D, UniProt Q9NZD1, residues 1-298; Order at the N-terminus as printed: haemagglutinin signal peptide, Flag tag, BRIL, then GPRC5D 1-298, HRV 3C site, 10x His; Membranes were treated with iodoacetamide before solubilisation; also called hGPRC5D; GPRC5D homodimer; not shown: BRIL (thermostabilized E. coli apocytochrome b562RIL), N-terminal, kept; 10x His, C-terminal, kept
stoichiometry N [2]: 2
